Test results from patent publication US20160009772A1, “CELL PENETRATING PEPTIDES WHICH BIND IRF5” (priority 2012, published 2016).

biological target: IRF5(222-467, S430D), S430D phosphomimetic construct of IRF5 (222-467) (human), Q13568; experiment: not given
Sequence (Q13568 232-477 S440D limits assumed): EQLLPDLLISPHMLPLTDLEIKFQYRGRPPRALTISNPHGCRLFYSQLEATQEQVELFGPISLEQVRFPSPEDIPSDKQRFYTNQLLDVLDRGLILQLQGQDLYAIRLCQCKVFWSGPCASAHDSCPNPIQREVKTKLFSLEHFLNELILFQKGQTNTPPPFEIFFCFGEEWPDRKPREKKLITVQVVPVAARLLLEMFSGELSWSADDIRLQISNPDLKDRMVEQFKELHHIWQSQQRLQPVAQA

| Binder | IC50 |
| --- | --- |
| Ac-KDLMVQWFKDGGPSSGAPPPS-NH2 [Ac-…-NH2 (SEQ ID NO: 8)] | 1680 nM |

biological target: Wild type IRF5 (222-467) (human) (UniProt Q13568); experiment: TR-FRET IRF5 dimerization inhibition, WT (222-467), peptide titrated

| Binder | IC50 |
| --- | --- |
| Ac-YLKFIPLKRAIWLIK-NH2 [Ac-…-NH2 (SEQ ID NO: 23), control CPP designed not to bind IRF5] | > 75000 nM |
| XIRLQISNPYLKFIPLKRAIWLIK (N-terminal FITC-Aha (fluorescein isothiocyanate on amino hexanoic acid), C-terminal amide (NH2)) [FITC-Aha-…-NH2 (SEQ ID NO: 16)] | 46500 nM |
| XMIILIISFPKHKDWKVILVK (N-terminal FITC-Aha (fluorescein isothiocyanate on amino hexanoic acid), C-terminal amide (NH2)) [FITC-Aha-…-NH2 (SEQ ID NO: 17)] | 5300 nM |
| Ac-PFPPLPIGEEAPKDDMVRFFKDLHQYLNVV-NH2 [Ac-…-NH2 (SEQ ID NO: 10)] | 350 nM |
| Ac-MIILIISFPKHKDWKVILVK-NH2 [Ac-…-NH2 (SEQ ID NO: 14)] | 18600 nM |
| Ac-KDLMVQWFKDGGPSSGAPPPS-NH2 [Ac-…-NH2 (SEQ ID NO: 8)] | 790 nM |
| Ac-IRLQISNPDLKDLMVQWFKDGGPSSGAPPPS-NH2 [Ac-…-NH2 (SEQ ID NO: 9)] | 1400 nM |
